Molecular target: the molecule itself
Assay: crystal structure

B1: Cdc10_(Δ1-10) (domain or fragment)
chain: SYVGFDTITNQIEHRLLKKGFQFNIMVVGQSGLGKSTLINTLFASHLIDSATGDDISALPVTKTTEMKISTHTLVEDRVRLNINVIDTPGFGDFIDNSKAWEPIVKYIKEQHSQYLRKELTAQRERFITDTRVHAILYFLQPNGKELSRLDVEALKRLTEIANVIPVIGKSDTLTLDERTEFRELIQNEFEKYNFKIYPYDSEELTDEELELNRSVRSIIPFAVVGSENEIEINGETFRGRKTRWSAINVEDINQCDFVYLREFLIRTHLQDLIETTSYIHYEGFRARQLIALKENANSRSSAHMSSNAIQR
binding result: binds

From doi:10.1101/2023.04.22.537027 (bioRxiv, 2023)
